Results from patent US20250161356A1 (UNIVERSITY OF MELBOURNE, published 2025).

T1: BTN2A1 on transfected cells (human, UniProt Q7KYR7 29-527)
T1 construct: Expressed from pMIG in NIH-3T3 or HEK293T cells; also called BTN2A1+ cells; BTN2A1 WT
T1 sequence: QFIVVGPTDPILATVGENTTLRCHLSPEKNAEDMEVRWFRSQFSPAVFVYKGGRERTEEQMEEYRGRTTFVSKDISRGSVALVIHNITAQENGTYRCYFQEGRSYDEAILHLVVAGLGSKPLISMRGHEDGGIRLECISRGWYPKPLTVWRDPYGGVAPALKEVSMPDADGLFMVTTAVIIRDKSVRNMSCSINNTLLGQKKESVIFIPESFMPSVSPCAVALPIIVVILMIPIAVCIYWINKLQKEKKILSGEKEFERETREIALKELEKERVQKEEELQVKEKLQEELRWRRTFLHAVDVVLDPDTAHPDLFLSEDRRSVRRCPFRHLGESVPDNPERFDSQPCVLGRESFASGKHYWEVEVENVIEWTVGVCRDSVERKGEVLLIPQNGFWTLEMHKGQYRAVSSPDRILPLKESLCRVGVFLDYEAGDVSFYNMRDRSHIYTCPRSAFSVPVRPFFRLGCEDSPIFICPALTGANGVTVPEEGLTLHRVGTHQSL

B1: BTN2A1 ectodomain tetramer (streptavidin-PE) (ligand, human, UniProt Q7KYR7 29-248, looked up)
chain: QFIVVGPTDPILATVGENTTLRCHLSPEKNAEDMEVRWFRSQFSPAVFVYKGGRERTEEQMEEYRGRTTFVSKDISRGSVALVIHNITAQENGTYRCYFQEGRSYDEAILHLVVAGLGSKPLISMRGHEDGGIRLECISRGWYPKPLTVWRDPYGGVAPALKEVSMPDADGLFMVTTAVIIRDKSVRNMSCSINNTLLGQKKESVIFIPESFMPSVSPCA
notes: extracellular domain; biotinylated at a C-terminal AviTag; also called BTN2A1 tetramer
B2: BTN2A1 ectodomain homodimer (disulfide-linked, with C-terminal Cys247 and leucine zippers) (ligand, human, UniProt Q7KYR7 29-248, looked up)
chain: B1 chain
notes: extracellular domain; One copy carries the acidic, the other the basic zipper; also called immobilised BTN2A1 ectodomain homodimer; BTN2A1 homodimer; not shown: acidic or basic leucine zipper and C-terminal AviTag/His tags
B3: BTN2A1-BTN3A1-zipper ectodomain complex (wild type) (other)
chain 1: B1 chain
chain 2: not shown
notes: extracellular domain; Immobilised in SPR; streptavidin-PE tetramer in staining; also called BTN2A1-BTN3A1 complex; BTN2A1-BTN3A1 heteromer; not shown: acid zipper (AZ)-His6; basic zipper (BZ)-biotin ligase tag
B4: soluble BTN2A1 ectodomain lacking Cys247 (monomeric) (ligand, human, UniProt Q7KYR7 29-246, looked up)
chain: QFIVVGPTDPILATVGENTTLRCHLSPEKNAEDMEVRWFRSQFSPAVFVYKGGRERTEEQMEEYRGRTTFVSKDISRGSVALVIHNITAQENGTYRCYFQEGRSYDEAILHLVVAGLGSKPLISMRGHEDGGIRLECISRGWYPKPLTVWRDPYGGVAPALKEVSMPDADGLFMVTTAVIIRDKSVRNMSCSINNTLLGQKKESVIFIPESFMPSVSP
notes: extracellular domain; also called soluble monomeric BTN2A1 ectodomain; full-length BTN2A1 ectodomain; not shown: C-terminal biotin ligase (AviTag) and His tags
B5: monomeric BTN3A1 IgV domain (ligand)
chain: not shown
notes: domain: IgV; not shown: C-terminal biotin ligase (AviTag) and His tags
B6: soluble BTN3A1 ectodomain (IgV-IgC), homodimer (ligand)
chain: not shown
notes: extracellular domain; Soluble analyte or immobilised ligand in SPR; streptavidin-PE tetramer in staining; also called BTN3A1 ectodomain homodimer; BTN3A1 tetramer; not shown: C-terminal biotin ligase (AviTag) and His tags
B7: BTN3A1 Arg44-Ala on transfected NIH-3T3 cells (ligand)
chain: not shown
notes: whole, on cells; Position counts the mature protein
B8: BTN3A1 Glu106-Ala on transfected NIH-3T3 cells (ligand)
chain: not shown
notes: as for B7
B9: BTN3A1 Tyr98-Ala on transfected NIH-3T3 cells (ligand)
chain: not shown
notes: as for B7
B10: BTN3A1 Leu96-Ala on transfected NIH-3T3 cells (ligand)
chain: not shown
notes: as for B7
B11: BTN3A1 Tyr98-Phe on transfected NIH-3T3 cells (ligand)
chain: not shown
notes: as for B7
B12: BTN3A1 Tyr105-Ala on transfected NIH-3T3 cells (ligand)
chain: not shown
notes: as for B7

Legend:
[1] = target: T2, 9C2 Vγ5Vδ1+ γδTCR on transfected HEK293T cells; assay: flow cytometry, tetramer-PE versus CD3-APC on HEK293T cells co-transfected with CD3 and 9C2 TCR; SAv ctl 26
T2 construct: Control TCR, co-transfected with CD3; also called 9C2 TCR (Control)

[2] = target: B6; assay: SPR, soluble BTN3A1 ectodomain over immobilised BTN2A1 homodimer, equilibrium analysis, ± SEM
[3] = target: B2; assay: SPR, soluble BTN2A1 ectodomain over immobilised BTN2A1 ectodomain homodimer
[4] = target: B6; assay: SPR, soluble BTN2A1 ectodomain over immobilised BTN3A1 homodimer, equilibrium analysis
[5] = target: B6; assay: SPR, soluble BTN2A1 ectodomain over immobilised BTN3A1 homodimer, equilibrium analysis, ± SEM
[6] = target: B6; assay: SPR, soluble BTN3A1 IgV domain over immobilised BTN3A1 homodimer
[7] = target: B2; assay: SPR, soluble BTN3A1 IgV domain over immobilised BTN2A1 homodimer, equilibrium analysis, ± SEM
[8] = target: T1, BTN2A1 on transfected cells; assay: FRET between anti-BTN2A1 (259) and anti-BTN3A (103.2) mAbs on NIH-3T3 cells co-expressing BTN2A1 WT and the BTN3A1 mutant (association in cis)

## B1
[1]
  median fluorescence of PE: 25

## B2
[2]
  Kd: 500 µM

## B3
[1]
  median fluorescence of PE: 52

## B4
[3]
  binding result: no binding
[4]
  Kd: ~1.8 mM
[5]
  Kd: 1.8 mM

## B5
[6]
  binding result: no binding (tested: 1,590 µM)
[7]
  Kd: 1.1 mM

## B6
[1]
  median fluorescence of PE: 28

## B7
[8]
  binding result: no binding

## B8
[8]
  binding result: no binding

## B9
[8]
  binding result: no binding

## B10
[8]
  binding result: no binding

## B11
[8]
  binding result: no binding

## B12
[8]
  binding result: no binding
